Results on 17 molecules are retold here after patent US20250084155A1 (University of Texas, published 2025).

B1: h77A-4 (antibody, V domains shown)
VH: QIQLVQSGAEVKKPGASVKVSCKASGYTFTNYGMNWVRQAPGQGLEWMGWINTYTGEPTYADDFKGRFTFTTDTSTSTAYMELRSLRSDDTAVYFCARYDHAMDYWGQGTLVTVSS
VL: DIQMTQSPSSLSASVGDRVTITCKSSQSLLNSGTRKNYLAWYQQKPGKVPKLLIYWTSTRESGVPSRFSGSGSGTDFTLTISSLQPEDVATYYCKQSYTLYTFGGGTKLEIK
B2: h77A-24 (antibody, V domains shown)
VH: QIQLVQSGPEVKKPGESVKVSCKASGYTFTNYGMNWVRQAPGKGLEWMGWINTYTGEPTYADDFKGRVTITRDTSASTAYMELSSLRSEDTAVYFCARYDHAMDYWGQGTSVTVSS
VL: DIQMTQSPSSLSASVGDRVTITCKSSQSLLNSGTRKNYLAWYQQKPGKVPKLLIYWTSTRESGVPSRFSGSGSGTDFTLTISSLQPEDVATYYCKQSYTLYTFGGGTKLEIK
B3: h77A-14 (antibody, V domains shown)
VH: QVQLQQSGPEVKKPGASVKISCKTSGYTFTNYGMNWVRQAPGQGLEWMGWINTYTGEPTYADDFKGRVTMTTDTSTSTAYLELTGLMSDDTAVYFCARYDHAMDYWGQGTTVTVSS
VL: DIQMTQSPSSLSASVGDRVTITCKSSQSLLNSGTRKNYLAWYQQKPGKVPKLLIYWTSTRESGVPSRFSGSGSGTDFTLTISSLQPEDVATYYCKQSYTLYTFGGGTKLEIK
B4: h77A-9 (antibody, V domains shown)
VH: QIQLVQSGAEVKKPGSSVKVSCKASGYTFTNYGMNWVRQAPGQGLEWMGWINTYTGEPTYADDFKGRFTFTADESTSTAYMELSSLRSEDTAVYFCARYDHAMDYWGQGTLVTVSS
VL: DIQMTQSPSSLSASVGDRVTITCKSSQSLLNSGTRKNYLAWYQQKPGKVPKLLIYWTSTRESGVPSRFSGSGSGTDFTLTISSLQPEDVATYYCKQSYTLYTFGGGTKLEIK
B5: chimeric 77A with a human IgG1 Fc domain (antibody, V domains shown)
VH: QIQLVQSGPELKKPGETVKISCKASGYTFTNYGMNWVKQAPGKGLKWMGWINTYTGEPTYADDFKGRFAFSLETSATTAYLQINNLKNEDTATYFCARYDHAMDYWGQGTSVTVSS
VL: DIVMSQSPSSLAVSAGEKVTMSCKSSQSLLNSGTRKNYLAWYQQKPGQSPKLLIYWTSTRESGVPDRFTGSGSGTDFTLTINSVQAEDLAVYYCKQSYTLYTFGGGTKLEIK
notes: also called Chimera IgG1; IgG1 Chimera
B6: chimeric 77A with a human IgG4 Fc domain (antibody, V domains shown)
VH: QIQLVQSGPELKKPGETVKISCKASGYTFTNYGMNWVKQAPGKGLKWMGWINTYTGEPTYADDFKGRFAFSLETSATTAYLQINNLKNEDTATYFCARYDHAMDYWGQGTSVTVSS
VL: DIVMSQSPSSLAVSAGEKVTMSCKSSQSLLNSGTRKNYLAWYQQKPGQSPKLLIYWTSTRESGVPDRFTGSGSGTDFTLTINSVQAEDLAVYYCKQSYTLYTFGGGTKLEIK
notes: also called Chimera IgG4; IgG4 Chimera
B7: chimeric 77A with a human IgG2 Fc domain (antibody, V domains shown)
VH: QIQLVQSGPELKKPGETVKISCKASGYTFTNYGMNWVKQAPGKGLKWMGWINTYTGEPTYADDFKGRFAFSLETSATTAYLQINNLKNEDTATYFCARYDHAMDYWGQGTSVTVSS
VL: DIVMSQSPSSLAVSAGEKVTMSCKSSQSLLNSGTRKNYLAWYQQKPGQSPKLLIYWTSTRESGVPDRFTGSGSGTDFTLTINSVQAEDLAVYYCKQSYTLYTFGGGTKLEIK
notes: also called Chimera IgG2; IgG2 Chimera
B8: h77A-11 (antibody, V domains shown)
VH: QVQLQQSGPEVKKPGASVKISCKTSGYTFTNYGMNWVRQAPGQGLEWMGWINTYTGEPTYADDFKGRVTMTTDTSTSTAYLELTGLMSDDTAVYFCARYDHAMDYWGQGTTVTVSS
VL: EIVLTQSPDSLAVSLGERATINCKSSQSLLNSGTRKNYLAWYQQKAGQSPKLLIYWTSTRESGVPDRFSGSGSGTDFTLTIDSLQAEDVAVYYCKQSYTLYTFGGGTKVEIK
B9: h77A-16 (antibody, V domains shown)
VH: EVQLVESGGGLVKPGGSLRLSCKASGYTFTNYGMNWVRQAPGKGLKWVGWINTYTGEPTYADDFKGRFTFSRDDSKNTLYLQMNSLKTEDTAVYFCARYDHAMDYWGQGTSVTVSS
VL: EIVLTQSPDSLAVSLGERATINCKSSQSLLNSGTRKNYLAWYQQKAGQSPKLLIYWTSTRESGVPDRFSGSGSGTDFTLTIDSLQAEDVAVYYCKQSYTLYTFGGGTKVEIK
B10: h77A-23 (antibody, V domains shown)
VH: QIQLVQSGPEVKKPGESVKVSCKASGYTFTNYGMNWVRQAPGKGLEWMGWINTYTGEPTYADDFKGRVTITRDTSASTAYMELSSLRSEDTAVYFCARYDHAMDYWGQGTSVTVSS
VL: DVVMTQSPDSLAVSLGERVTINCKSSQSLLNSGTRKNYLAWYQQKPGQSPKLLIYWTSTRESGVPDRFSGSGSGTDFTLTISSLQAEDVAVYYCKQSYTLYTFGQGTKLEIK
B11: h77A-7 (antibody, V domains shown)
VH: QIQLVQSGAEVKKPGSSVKVSCKASGYTFTNYGMNWVRQAPGQGLEWMGWINTYTGEPTYADDFKGRFTFTADESTSTAYMELSSLRSEDTAVYFCARYDHAMDYWGQGTLVTVSS
VL: DIVMTQSPDSLSVSLGERATINCKSSQSLLNSGTRKNYLAWYQQKPGQPPRLLIYWTSTRESGVPDRFSGSGSGTDFTLTINTLQAEDVAVYYCKQSYTLYTFGQGTKLEIK
B12: h77A-12 (antibody, V domains shown)
VH: QVQLQQSGPEVKKPGASVKISCKTSGYTFTNYGMNWVRQAPGQGLEWMGWINTYTGEPTYADDFKGRVTMTTDTSTSTAYLELTGLMSDDTAVYFCARYDHAMDYWGQGTTVTVSS
VL: DIVMTQSPDSLSVSLGERATINCKSSQSLLNSGTRKNYLAWYQQKPGQPPRLLIYWTSTRESGVPDRFSGSGSGTDFTLTINTLQAEDVAVYYCKQSYTLYTFGQGTKLEIK
B13: h77A-25 (antibody, V domains shown)
VH: QIQLVQSGPEVKKPGESVKVSCKASGYTFTNYGMNWVRQAPGKGLEWMGWINTYTGEPTYADDFKGRVTITRDTSASTAYMELSSLRSEDTAVYFCARYDHAMDYWGQGTSVTVSS
VL: DIVMTQSPDSLAVSLGERATINCKSSQSLLNSGTRKNYLAWYQQKPGQSPKLLIYWTSTRESGVPDRFSGSGSGTDFTLTISSLQAEDVAVYYCKQSYTLYTFGGGTKLEIK
B14: h77A-13 (antibody, V domains shown)
VH: QVQLQQSGPEVKKPGASVKISCKTSGYTFTNYGMNWVRQAPGQGLEWMGWINTYTGEPTYADDFKGRVTMTTDTSTSTAYLELTGLMSDDTAVYFCARYDHAMDYWGQGTTVTVSS
VL: DVVMTQSPDSLAVSLGERVTINCKSSQSLLNSGTRKNYLAWYQQKPGQSPKLLIYWTSTRESGVPDRFSGSGSGTDFTLTISSLQAEDVAVYYCKQSYTLYTFGQGTKLEIK
B15: h77A-22 (antibody, V domains shown)
VH: QIQLVQSGPEVKKPGESVKVSCKASGYTFTNYGMNWVRQAPGKGLEWMGWINTYTGEPTYADDFKGRVTITRDTSASTAYMELSSLRSEDTAVYFCARYDHAMDYWGQGTSVTVSS
VL: DIVMTQSPDSLSVSLGERATINCKSSQSLLNSGTRKNYLAWYQQKPGQPPRLLIYWTSTRESGVPDRFSGSGSGTDFTLTINTLQAEDVAVYYCKQSYTLYTFGQGTKLEIK
B16: h77A-15 (antibody, V domains shown)
VH: QVQLQQSGPEVKKPGASVKISCKTSGYTFTNYGMNWVRQAPGQGLEWMGWINTYTGEPTYADDFKGRVTMTTDTSTSTAYLELTGLMSDDTAVYFCARYDHAMDYWGQGTTVTVSS
VL: DIVMTQSPDSLAVSLGERATINCKSSQSLLNSGTRKNYLAWYQQKPGQSPKLLIYWTSTRESGVPDRFSGSGSGTDFTLTISSLQAEDVAVYYCKQSYTLYTFGGGTKLEIK
B17: h77A-21 (antibody, V domains shown)
VH: QIQLVQSGPEVKKPGESVKVSCKASGYTFTNYGMNWVRQAPGKGLEWMGWINTYTGEPTYADDFKGRVTITRDTSASTAYMELSSLRSEDTAVYFCARYDHAMDYWGQGTSVTVSS
VL: EIVLTQSPDSLAVSLGERATINCKSSQSLLNSGTRKNYLAWYQQKAGQSPKLLIYWTSTRESGVPDRFSGSGSGTDFTLTIDSLQAEDVAVYYCKQSYTLYTFGGGTKVEIK

Broadly, the Kd is the constant that tells how readily two partners part at equilibrium. Read a low Kd as tighter binding. As a reminder, the koff is the rate constant with which the complex falls apart. A higher koff goes with fast dissociation. Usually kon stands for the rate constant with which the complex forms.

T1 sequence (P0DMV8 whole entry, change not shown): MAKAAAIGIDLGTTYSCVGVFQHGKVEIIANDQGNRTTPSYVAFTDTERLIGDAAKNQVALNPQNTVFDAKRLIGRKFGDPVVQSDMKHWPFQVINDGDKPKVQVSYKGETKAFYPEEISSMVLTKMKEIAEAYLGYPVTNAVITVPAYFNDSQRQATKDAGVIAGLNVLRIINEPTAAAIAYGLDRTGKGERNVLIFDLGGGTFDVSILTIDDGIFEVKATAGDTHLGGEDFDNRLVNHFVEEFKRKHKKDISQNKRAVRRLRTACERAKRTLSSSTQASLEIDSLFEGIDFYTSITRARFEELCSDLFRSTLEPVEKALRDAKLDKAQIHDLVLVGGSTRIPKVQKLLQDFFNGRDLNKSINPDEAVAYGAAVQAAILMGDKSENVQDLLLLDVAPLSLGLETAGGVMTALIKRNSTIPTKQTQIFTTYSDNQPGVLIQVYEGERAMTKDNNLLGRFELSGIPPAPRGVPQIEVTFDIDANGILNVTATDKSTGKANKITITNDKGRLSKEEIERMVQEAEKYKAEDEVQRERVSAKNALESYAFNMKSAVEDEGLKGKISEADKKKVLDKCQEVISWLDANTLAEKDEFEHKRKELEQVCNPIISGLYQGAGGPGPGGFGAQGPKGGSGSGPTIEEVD

The assay concerns the target T1, HSP70 (human HSP70; the antigen of the binning, humanization and variant binding assays) (human, UniProt P0DMV8 1-641, limits assumed).
T1 construct: also called hu HSP70
In words: BLI, antibody on sensor. The method, then:
Humanized variants were characterized for binding using biolayer interferometry (BLI). Chimeric antibodies including the murine 77A antigen binding region and human Fe regions were also tested. Antibodies and reagents were diluted out onto microwell plates and loaded into the instrument. Diluted antibodies were first immobilized onto dip-and-read sensors, and then measurements for baselines were acquired. Subsequently, the sensors were dipped into wells containing the antigen in solution, or buffer alone. The change in number of molecules bound to the sensor was quantified by measurement of the shift in the interference pattern of light during each step of the protocol. Mathematical modeling was performed based on those values and the concentrations of reagents used in the assay and used to calculate kinetics values.
B1 had a Kd of 7.66 nM, a koff of 0.000287 s⁻¹ and an association rate constant (kon) of 37400 M⁻¹ s⁻¹.
B2 returned a Kd of 9.26 nM, an off-rate (koff) of 0.000294 s⁻¹ and a kon of 31800 M⁻¹ s⁻¹.
B3 gave a Kd of 15 nM, a koff of 0.000616 s⁻¹ and an on-rate (kon) of 41100 M⁻¹ s⁻¹.
Take B4: binding was characterised by a dissociation constant (Kd) of 8.89 nM, the dissociation rate constant (koff) turned out to be 0.000348 s⁻¹ and the association rate constant (kon) came out at 39200 M⁻¹ s⁻¹.
For B5, binding was put at a Kd of 1.39 nM, the off-rate constant (koff) was 9.94e-05 s⁻¹ and the kon is 71600 M⁻¹ s⁻¹.
The molecule B6 showed a Kd of 1.81 nM, a koff of 0.000129 s⁻¹ and a kon of 71300 M⁻¹ s⁻¹.
In turn, B7 had a Kd of 1.52 nM, a koff of 0.000112 s⁻¹ and a kon of 73700 M⁻¹ s⁻¹.
For B8, the Kd was determined as 4.23 nM, the koff turned out to be 0.000189 s⁻¹ and the kon is 44600 M⁻¹ s⁻¹.
As to B9, binding was characterised by a dissociation constant (Kd) of 10.5 nM, the off-rate constant (koff) amounted to 0.00046 s⁻¹ and the kon came out at 44000 M⁻¹ s⁻¹.
The corresponding values for B10 are 8.96 nM, 0.000447 s⁻¹ and 49900 M⁻¹ s⁻¹.
Molecule B11 came in with an equilibrium dissociation constant (Kd) of 10 nM, a koff of 0.000488 s⁻¹ and an on-rate (kon) of 48700 M⁻¹ s⁻¹.
Consider B12, for which the equilibrium dissociation constant (Kd) was 10 nM, the off-rate constant (koff) was determined as 0.000446 s⁻¹ and the kon was determined as 44500 M⁻¹ s⁻¹.
In turn, B13 yielded a dissociation constant Kd of 10.6 nM, a koff of 0.000503 s⁻¹ and an on-rate constant (kon) of 47300 M⁻¹ s⁻¹.
Turning to B14, the equilibrium dissociation constant (Kd) was found to be 8.85 nM, the off-rate (koff) amounted to 0.000396 s⁻¹ and the association rate constant (kon) turned out to be 44700 M⁻¹ s⁻¹.
Consider B15, for which the equilibrium dissociation constant (Kd) is 8.31 nM, the dissociation rate constant (koff) was found to be 0.000302 s⁻¹ and the on-rate constant (kon) was 36400 M⁻¹ s⁻¹.
B16 gave a Kd of 10.8 nM, a koff of 0.000513 s⁻¹ and an association rate constant (kon) of 47600 M⁻¹ s⁻¹.
As to B17, the Kd was found to be 13.1 nM, the dissociation rate constant (koff) came out at 0.000545 s⁻¹ and the kon came to 41700 M⁻¹ s⁻¹.
